These results are taken from the supplement of paper PMC12783771.

B1: library; numbered along this chain (parent)
chain: MNIQIGELAKRTACPVVTIRFYEQEGLLPPPGRSRGNFRLYGEEHVERLQFIRHCRSLDMPLSDVRTLLSYRKRPDQDCGEVNMLLDEHIRQVESRIGALLELKHHLVELREACSGARPAQSCGILQGLSDCVCDTRGTTAHPSD

± gives the standard deviation of the averaged measurements.

In data set [1] the parent is B1. In words: sfGFP reporter fluorescence (15 h) (µM FITC); higher = higher leak. The note with it: library round: Round 0; ligand: none. The method in brief:
(§1)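 Linear PbrR templates were made by PCR, normalized to 5 nM with an Echo, and expressed in BL21 Star (DE3) PANOx-SP extract with the pPbrR-sfGFP reporter plasmid and 30 μg/mL GamS. Echo-assembled 1 μL reactions held 1 µM lead chloride, 30 µM zinc acetate or no metal and were incubated 15 hr at 30 °C. Endpoint sfGFP fluorescence was read on a Synergy Neo2 and expressed as µM FITC using standard curves. Up to three biological replicates were run.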

In data set [2] the parent is B1. Nature of the data set: sfGFP reporter fluorescence (15 h) (µM FITC); higher = stronger transcriptional activation. The note with it: library round: Round 0. The gist of the method: as §1

MNIQIGELAKRTACPVVTIRFYEQEGLRPPPGRSRGNFRLYGEEHVERLQFIRHCRSLDMPLSDVRTLLSYRKRPDQDCGEVNMLLDEHIRQVESRIGALLELKHHLVELREACSGARPAQSCGILQGLSDCVCDTRGTTAHPSD [L28R]: the sfGFP reporter fluorescence in data set [1] turned out to be 0.0629 ± 0.0013; in data set [2] (ligand: 1 µM Pb) it was 0.063 ± 0.0026; in data set [2] (ligand: 30 µM Zn), 0.0588 ± 0.0029.

As for MNIQIGELAKRTACPVVTIRFYEQEGLLPPPGRSRGNFRLYGEEHVERLQFIRHCRSLDMPLSDVRTLLSYRKRPDQDCGEVNMLLDEHIRQVESRIGALLEAKHHLVELREACSGARPAQSCGILQGLSDCVCDTRGTTAHPSD [L103A], the sfGFP reporter fluorescence in data set [1] was 0.0629 ± 0.0013; in data set [2] (ligand: 1 µM Pb), 0.06945 ± 0.00026; in data set [2] (ligand: 30 µM Zn), 0.918 ± 0.037.

On to MNIQIGELAKRTACPVVTIRFYEQEGLLPPPGRSRGNFRLYGEEHVERLQFIRHCRSLDMPLSDVRTLLSYRKRPDQDCGEVNMLLDEHIRQVESRIGALLELKHHLVTLREACSGARPAQSCGILQGLSDCVCDTRGTTAHPSD [E109T], for which the sfGFP reporter fluorescence worked out at 0.0625 ± 0.0018 in data set [1], 0.0935 ± 0.0026 in data set [2] (ligand: 1 µM Pb) and 1.71 ± 0.12 in data set [2] (ligand: 30 µM Zn).

In the case of MNIQIGELAKRTACPVVTIRFYEQEGLLPPPGRSRGNFRLYGEEHVERLQFIRHCRSLDMPLSDVRTLLSYRKRPDQDCGEVNMLLDEHIRQVESRIGALLELKHHLVELREAPSGARPAQSCGILQGLSDCVCDTRGTTAHPSD [C114P], the sfGFP reporter fluorescence in data set [1] stood at 0.0552 ± 0.0013; in data set [2] (ligand: 1 µM Pb), 0.0563 ± 0.0013; in data set [2] (ligand: 30 µM Zn), 0.05204 ± 0.00052.

Consider MNIQIGELAKRTACPVVTIRFYEQEGLLPPPGRSRGNFRLYGEEHVERLQFIRHCRSLDMPLSDVRTLLSYRKRPDQDCGEVNMLLDEHIRQVESRIGALLELKHHLVELREAVSGARPAQSCGILQGLSDCVCDTRGTTAHPSD [C114V], for which the values for the sfGFP reporter fluorescence in data set [1], in data set [2] (ligand: 1 µM Pb) and in data set [2] (ligand: 30 µM Zn) were 0.0566 ± 0.00078, 0.0555 ± 0.00078 and 0.05186 ± 0.00026, respectively.

For the variant MNIQIGELAKRTACPVVTIRFYEQEGLLPPPGRSRGNFRLYGEEHVERLQFIRHCRSLDMDLSDVRTLLSYRKRPDQDCGEVNMLLDEHIRQVESRIGALLELKHHLVELREACSGARPAQSCGILQGLSDCVCDTRGTTAHPSD [P61D], the sfGFP reporter fluorescence in data set [1] was determined as 0.0729; in data set [2] (ligand: 1 µM Pb) it was 0.123 ± 0.0044; in data set [2] (ligand: 30 µM Zn), 0.709 ± 0.02.

For MNIQIGELAKRTACYVVTIRFYEQEGLLPPPGRSRGNFRLYGEEHVERLQFIRHCRSLDMPLSDVRTLLSYRKRPDQDCGEVNMLLDEHIRQVESRIGALLELKHHLVELREACSGARPAQSCGILQGLSDCVCDTRGTTAHPSD [P15Y], the results for the sfGFP reporter fluorescence in data set [1], in data set [2] (ligand: 1 µM Pb) and in data set [2] (ligand: 30 µM Zn) were 0.0652 ± 0.0021, 0.0684 ± 0.0034 and 0.368 ± 0.0021, respectively.

Regarding MNIQIGELAKRTACPVVTIRFAEQEGLLPPPGRSRGNFRLYGEEHVERLQFIRHCRSLDMPLSDVRTLLSYRKRPDQDCGEVNMLLDEHIRQVESRIGALLELKHHLVELREACSGARPAQSCGILQGLSDCVCDTRGTTAHPSD [Y22A], the sfGFP reporter fluorescence in data set [1] turned out to be 0.06029 ± 0.00026; in data set [2] (ligand: 1 µM Pb), 0.0557 ± 0.0021; in data set [2] (ligand: 30 µM Zn) it was 0.0634 ± 0.001.

For the variant MNIQIGELAKRTACPVVTIRFYEQEGLLPPPGRSRGNFRLYGEEHVERLQFIRHCRSLDMPLSDVRTLLSYRKRPDQDCGEVNMLLDEHIRQVESRIGALLELKHHLVELREACSGARPAQSCGILQGLSDCVCDTRGTTAHGSD [P143G], the sfGFP reporter fluorescence in data set [1] is 0.05351 ± 0.00052; in data set [2] (ligand: 1 µM Pb) it was 0.06945 ± 0.00026; in data set [2] (ligand: 30 µM Zn), 0.71 ± 0.092.

For the variant MNIQIGELAKRTACPVVTIRFYEQEGLLPPPGRSRGNFRLYGEEHVERLQFIRHCRSLDMPLSDVRTLLSYRKRPDQDCGEVNMLLDEHIRQVESRPGALLELKHHLVELREACSGARPAQSCGILQGLSDCVCDTRGTTAHPSD [I97P], the sfGFP reporter fluorescence in data set [1] was found to be 0.0542 ± 0.0036; in data set [2] (ligand: 1 µM Pb) it was 0.0561 ± 0.001; in data set [2] (ligand: 30 µM Zn) it was 0.135 ± 0.0036.

MNIQIGELAKRTACPVVTIRFYEQEGLLPPPGRSRGNFRLYGEEHVERLQFIRHCRSLDMPLSDVRTLLSYRKRPDQDCGEVNMLLDEHIRQVESRIGALLELKHHLVELREACSGARPAQSCGMLQGLSDCVCDTRGTTAHPSD [I125M]: the sfGFP reporter fluorescence came out at 0.05992 ± 0.00026 in data set [1], 0.0579 ± 0.001 in data set [2] (ligand: 1 µM Pb) and 0.05571 ± 0.00052 in data set [2] (ligand: 30 µM Zn).

With MNIQIGELAKRTACPVVTIRFYEQEGLLPPPGRSRGNFRLYGEEHVERLQFIRHCRSLDLNLSKVRTLLSYRKRPDQDCGEVNMLLDEHIRQVESRIGALLELVHHLVELREACSGARPAQSCGILQILSDCVCDTRGTTAHPSD [M60L P61N D64K K104V G128I], the sfGFP reporter fluorescence in data set [1] worked out at 0.345 ± 0.029; in data set [2] (ligand: 1 µM Pb) it was 0.915 ± 0.075; in data set [2] (ligand: 30 µM Zn) it was 2.39 ± 0.063.

Take MNIQIGELAKRTACPVVTIRFYEQEGLLPPAGRSRGNFRLYGEEHVERLQFIRHCRSLDMPLSDVRTLLSYRKRPDQDCGEVNMLLDEHIRQVESRIGALLELKHHLVELREACSGARPAQSCGILQGLSDCVCDTRGTTAHPSD [P31A]: the figures for the sfGFP reporter fluorescence in data set [1], in data set [2] (ligand: 1 µM Pb) and in data set [2] (ligand: 30 µM Zn) were 0.05736 ± 0.00026, 0.0607 ± 0.0044 and 0.485 ± 0.04, respectively.

In the case of MNIQIGELAKRTACPVVTIRFYEQEGLLPPPGRSRGNFRLYGEEHVERLQFIRHCRSLDMPLSDVRTLLSYRKRPDQDCGEVNMLLDEHIRQVESRIGALLELLHHLVELREACSGARPAQSCGILQGLSDCVCDTRGTTAHPSD [K104L], the sfGFP reporter fluorescence in data set [1] was 0.0592 ± 0.0049; in data set [2] (ligand: 1 µM Pb) it was 0.135 ± 0.03; in data set [2] (ligand: 30 µM Zn) it was 1.11 ± 0.054.
